One substance from PMC5332557 can be followed below.

The target in the test is soluble C-terminally truncated HAP2 ectodomain (HAP2e), residues 23-592, Chlamydomonas reinhardtii (Chlamydomonas reinhardtii) (UniProt A4GRC6). Kind of test: SEC-MALS. A general note: Size exclusion chromatography separates by hydrodynamic size, large species first.

Substance “soluble C-terminally truncated HAP2 ectodomain (HAP2e), residues 23-592, Chlamydomonas reinhardtii (from UniProt A4GRC6 23-592) (domain or fragment)” yielded a stoichiometry N of 6.

For orientation: stoichiometry N means the number of molecules, sites or subunits per partner or assembly.
